From paper PMC12125310
Where two headings read alike, the source gives them in different places.

T1: RGL2 (Col) (Arabidopsis thaliana (Col-0), UniProt Q8GXW1 1-547)
T1 sequence: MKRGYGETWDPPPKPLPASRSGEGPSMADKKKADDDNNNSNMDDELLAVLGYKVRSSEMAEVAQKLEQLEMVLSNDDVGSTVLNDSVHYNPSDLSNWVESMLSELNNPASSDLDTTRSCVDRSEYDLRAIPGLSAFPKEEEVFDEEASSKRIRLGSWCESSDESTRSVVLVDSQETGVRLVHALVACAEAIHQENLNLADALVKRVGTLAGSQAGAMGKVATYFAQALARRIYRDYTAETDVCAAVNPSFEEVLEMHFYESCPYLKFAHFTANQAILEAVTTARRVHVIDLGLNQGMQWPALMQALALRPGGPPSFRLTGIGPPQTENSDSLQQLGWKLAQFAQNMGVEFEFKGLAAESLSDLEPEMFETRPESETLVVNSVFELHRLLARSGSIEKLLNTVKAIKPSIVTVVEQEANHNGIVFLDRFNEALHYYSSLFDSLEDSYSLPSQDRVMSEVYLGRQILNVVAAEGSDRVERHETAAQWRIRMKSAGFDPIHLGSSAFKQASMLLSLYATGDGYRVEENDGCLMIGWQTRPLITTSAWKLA

T2: DOF6 (Col-0) (Arabidopsis thaliana (Col-0), UniProt Q9M1E6 1-245)
T2 sequence: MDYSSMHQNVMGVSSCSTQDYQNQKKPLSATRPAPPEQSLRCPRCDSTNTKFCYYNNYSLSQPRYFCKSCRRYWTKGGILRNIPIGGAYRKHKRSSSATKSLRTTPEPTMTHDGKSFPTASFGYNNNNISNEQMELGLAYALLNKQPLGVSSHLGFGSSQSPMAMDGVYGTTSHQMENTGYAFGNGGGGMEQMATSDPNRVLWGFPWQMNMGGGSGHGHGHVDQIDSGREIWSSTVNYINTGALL

T3: DOF6 (Col-0);RGL2 (Col) (Arabidopsis thaliana …, UniProt Q9M1E6;Q8GXW1 1-245;1-547, |)
T3 sequence 1: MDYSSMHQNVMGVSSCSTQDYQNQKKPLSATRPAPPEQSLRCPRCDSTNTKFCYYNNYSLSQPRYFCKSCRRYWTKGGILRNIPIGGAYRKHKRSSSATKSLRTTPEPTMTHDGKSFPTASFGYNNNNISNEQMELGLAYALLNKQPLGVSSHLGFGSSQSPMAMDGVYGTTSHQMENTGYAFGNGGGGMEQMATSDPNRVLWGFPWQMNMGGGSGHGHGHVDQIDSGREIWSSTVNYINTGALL
T3 sequence 2: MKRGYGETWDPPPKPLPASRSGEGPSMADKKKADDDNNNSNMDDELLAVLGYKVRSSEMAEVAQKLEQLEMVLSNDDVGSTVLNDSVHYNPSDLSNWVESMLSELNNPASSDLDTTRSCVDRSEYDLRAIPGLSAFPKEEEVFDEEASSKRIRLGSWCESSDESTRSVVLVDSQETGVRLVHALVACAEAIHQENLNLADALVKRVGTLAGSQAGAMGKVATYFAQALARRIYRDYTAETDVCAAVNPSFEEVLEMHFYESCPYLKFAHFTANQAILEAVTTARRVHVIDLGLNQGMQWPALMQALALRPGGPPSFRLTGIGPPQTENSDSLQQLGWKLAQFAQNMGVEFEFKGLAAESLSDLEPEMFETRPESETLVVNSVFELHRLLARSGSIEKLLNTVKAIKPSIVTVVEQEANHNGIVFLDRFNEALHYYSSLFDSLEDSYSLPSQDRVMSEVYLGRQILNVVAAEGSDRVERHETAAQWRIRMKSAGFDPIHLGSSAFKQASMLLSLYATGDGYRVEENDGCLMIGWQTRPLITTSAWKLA

B1: GA20ox3 Col probe (P8) (dsDNA)
DNA 1: TAAAAAATAAAAATGAAAAGTATCATGATA
DNA 2: TATCATGATACTTTTCATTTTTATTTTTTA
B2: GA20ox3 Tib probe (dsDNA)
DNA 1: TTTAAAAATAAAATAAAAAGTATCATGATA
DNA 2: TATCATGATACTTTTTATTTTATTTTTAAA

Legend:
Assay in all cases: EMSA
RGL2 (Col) = target: T1, RGL2 (Col)
DOF6 (Col-0) = target: T2, DOF6 (Col-0)
DOF6 (Col-0);RGL2 (Col) [1] = target: T3, DOF6 (Col-0);RGL2 (Col)
DOF6 (Col-0);RGL2 (Col) [2] = target: T3, DOF6 (Col-0);RGL2 (Col); remark: listed apart in the source

Binder	binding result (RGL2 (Col))	binding result (DOF6 (Col-0))	binding result (DOF6 (Col-0);RGL2 (Col) [1])	binding result (DOF6 (Col-0);RGL2 (Col) [2])
B1	no binding	binds	binds	–
B2	–	binds	–	binds
